Test results reported in paper PMC11741606 (2025).
Changes are numbered by the printed parent chain.

Tests used:
Assay in all cases: SPR
[1] = target: T1, dAPN-Y797H ectodomain, hFc-tagged (dog (Canis lupus familiaris), UniProt P79143 33-975, Y797H)
T1 sequence: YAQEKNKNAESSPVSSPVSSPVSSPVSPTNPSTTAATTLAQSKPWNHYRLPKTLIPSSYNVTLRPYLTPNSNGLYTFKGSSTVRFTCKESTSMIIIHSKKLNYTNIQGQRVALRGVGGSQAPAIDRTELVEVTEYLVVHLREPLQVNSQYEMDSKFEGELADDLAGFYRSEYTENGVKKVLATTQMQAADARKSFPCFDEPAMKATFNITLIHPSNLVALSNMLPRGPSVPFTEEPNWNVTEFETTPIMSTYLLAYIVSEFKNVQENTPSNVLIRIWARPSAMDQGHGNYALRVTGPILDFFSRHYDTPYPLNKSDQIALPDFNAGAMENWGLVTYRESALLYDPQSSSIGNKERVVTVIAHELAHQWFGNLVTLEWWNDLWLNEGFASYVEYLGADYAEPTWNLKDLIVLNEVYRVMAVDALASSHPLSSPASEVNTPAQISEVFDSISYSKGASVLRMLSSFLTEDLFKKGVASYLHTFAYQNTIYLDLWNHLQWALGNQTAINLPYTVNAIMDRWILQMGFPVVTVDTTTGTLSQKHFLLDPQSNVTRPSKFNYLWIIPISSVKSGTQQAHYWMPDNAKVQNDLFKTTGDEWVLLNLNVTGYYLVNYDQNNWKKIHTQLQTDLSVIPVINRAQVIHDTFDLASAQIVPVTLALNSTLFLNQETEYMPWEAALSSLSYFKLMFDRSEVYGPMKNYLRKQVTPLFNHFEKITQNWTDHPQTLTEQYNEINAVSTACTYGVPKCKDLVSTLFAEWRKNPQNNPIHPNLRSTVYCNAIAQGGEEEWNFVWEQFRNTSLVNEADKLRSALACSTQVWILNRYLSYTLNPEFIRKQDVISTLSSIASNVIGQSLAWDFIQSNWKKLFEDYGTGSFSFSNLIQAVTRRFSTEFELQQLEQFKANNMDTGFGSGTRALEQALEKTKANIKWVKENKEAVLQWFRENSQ

[2] = target: T2, dAPN-H751R ectodomain, hFc-tagged (dog (Canis lupus familiaris), UniProt P79143 33-975, H751R)
T2 sequence: T1 sequence with H719R, H765Y

[3] = target: giant panda aminopeptidase N ectodomain fused with the Fc domain of human IgG (giant panda (Ailuropoda melanoleuca))
[4] = target: horse aminopeptidase N ectodomain fused with the Fc domain of human IgG (horse (Equus caballus))
[5] = target: Arabian camel aminopeptidase N ectodomain fused with the Fc domain of human IgG (Arabian camel (Camelus dromedarius))
[6] = target: red fox aminopeptidase N ectodomain fused with the Fc domain of human IgG (red fox (Vulpes vulpes))

B1: TGEV RBD (receptor-binding domain of the transmissible gastroenteritis coronavirus spike protein) (domain or fragment)
chain: TANLNNGFYPVSSSEVGLVNKSVVLLPSFYTHTIVNITIDLGMKRSGYGQPIASTLSNITLPMQDNNTDVYCIRSDQFSVYVHSTCKSSLWDNIFKRNCTDVLDATAVIKTGTCPFSFDKLNNYLTFNKFCLSLSPVGANCKFDVAARTRTNEQVVRSLYVIYEEGDNIVGVPSD
B1 showed a Kd [1] of 23.8 nM, a Kd [2] of 241 nM and a Kd [3] of 765 nM. The Kd [4] was 2350 nM, the Kd [5] was 6360 nM and the Kd [6] was 462 nM.
